{"source": "patent US20090232811A1", "target": "recombinant human ANGPT2 (full-length ANGPT2-His protein, R&D Systems) (human) (UniProt O15123)", "sequence (O15123 19-496 limits assumed)": "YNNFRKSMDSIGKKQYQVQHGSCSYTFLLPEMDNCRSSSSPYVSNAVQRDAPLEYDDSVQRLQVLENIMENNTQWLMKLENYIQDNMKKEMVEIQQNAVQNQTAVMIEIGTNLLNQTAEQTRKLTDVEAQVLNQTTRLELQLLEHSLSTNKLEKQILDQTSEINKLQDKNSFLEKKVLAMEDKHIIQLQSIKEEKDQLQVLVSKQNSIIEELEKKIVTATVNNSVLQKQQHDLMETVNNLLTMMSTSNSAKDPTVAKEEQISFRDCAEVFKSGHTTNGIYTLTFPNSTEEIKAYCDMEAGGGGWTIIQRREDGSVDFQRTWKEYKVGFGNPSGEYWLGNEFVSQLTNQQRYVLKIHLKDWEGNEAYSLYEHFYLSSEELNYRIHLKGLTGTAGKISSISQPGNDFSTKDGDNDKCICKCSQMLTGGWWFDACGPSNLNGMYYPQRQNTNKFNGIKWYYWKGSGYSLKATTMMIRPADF", "test": "cellular FACS IGF-1R-ANGPT2 bridging assay on I24 cells with purified Bispecific VL-VH/CL-CH1 exchange mix and 2 µg/mL hANGPT2; isotype control in place of <Ang-2>mIgG1-Biotin, SA-PE (FL2-H)"}
{"substance": "mIgG1-Biotin-Isotype control (antibody)", "values": [{"measurement": "Mean", "value": 8.7}]}
